Reference: patent publication US20200397860A1, “SLIT AND BONE GROWTH MODULATION” (Cornell University, priority 2018, published 2020)
Entries after “also recorded” stand apart in the source; their conditions may differ.

Assays:
[1] = tested on: bone marrow-derived endothelial cells; assay: Flow cytometry of CD31hiEMCNhi endothelial cells in EPOC cultures; format: cell-based, mouse; settings: cultures of EPOCs
Method: Femur and tibia were dissected from mutant mice and control groups after removing surrounding connective tissues. The metaphysis region and diaphysis regions of bone was crushed in Hanks Balanced Salt Solution (Life Technologies) containing 10 mM HOPES (pH 7.2) (CellGro) and enzymatically digested with 2.5 mg/mL Collagenase A (Roche) and 1 unit/mL Dispase II (Roche) for 15 minutes at 37° C. under gentle agitation. The resulting cell suspensions were filtered (40 μm), washed using PBS (pH 7.2) containing 0.5% BSA (Fraction V) and 2 mM EDTA. […] After washing, cells were resuspended in PBS (pH 7.2) with 2 mM EDTA and 1 μg/mL 4-6,Diamidino-2-Phenylindole (DAPI) (live/dead exclusion) for analysis on an LSRII flow cytometer system (BD Biosciences) cytometer and analyzed using FlowJo software (TreeStar). […]
Mouse bone marrow derived late-stage endothelial progenitor outgrowth cells (EPOCs) were obtained from BioChain (7030031) and cultured in growth medium (BioChain Z7030035) as described previously (Xie et al. 2014). […] The cell numbers were quantified by counting a centered microscope field per each filter (5 wells for each condition). […] The width of the wound area was quantitatively evaluated using ImageJ (see website at rsb.info.uih.gov/ij/download.html). […]

[2] = tested on: murine ovariectomy (OVX) model of postmenopausal osteoporosis; assay: Ovariectomy (OVX) induced bone loss, therapeutic model after osteopenia onset; format: in vivo, mouse
[3] = tested on: bone marrow derived EPOCs; assay: Alamar blue based proliferation assay; format: cell-based, mouse
Method: Mouse bone marrow derived late-stage endothelial progenitor outgrowth cells (EPOCs) were obtained from BioChain (7030031) and cultured in growth medium (BioChain Z7030035) as described previously (Xie et al. 2014). Endothelial cell migration assay was set up in Trans well-24 well plates with 8-um pore filters. Briefly, 1×10^5 cells/well after 1-hour serum starvation were seeded in the upper chamber, then incubated with conditioned medium from osteoblasts and control in the lower chambers for a further 3 h. The cells in the upper surface of each filter were removed with cotton swabs. The cells that migrated into the lower surface were fixed with 4% PFA for 30 min and then stained with crystal violet. The cell numbers were quantified by counting a centered microscope field per each filter (5 wells for each condition). […] The width of the wound area was quantitatively evaluated using ImageJ (see website at rsb.info.uih.gov/ij/download.html). […] At 0, 24, 48 hours after seeding, cells were incubated with 10-fold diluted Alamar Blue solution (Thermo Fisher) and the supernatant was evaluated with a spectrophotometer (Thermo) (5 wells for each condition). […] Alter 5 hours incubation at 37° C., the number of tube branches each well was observed and quantified by counting four random fields per well with microscopy (5 wells for each condition).

[4] = tested on: bone marrow endothelial cells; assay: Immunoblot of YAP, AKT and ERK phosphorylation after SLIT3 treatment; format: cell-based, mouse
Method: Western blot analysis was performed according to a previously described standard protocol. (Greenblatt et al. 2016) Primary antibodies were specific for SLIT3 (1:500; R&D Systems, AF3629), ROBO1 (1:500; Abeam, ab7279), ROBO2 (1:1000; Abcam, ab75014), YAP (1:1,000; Cell Signaling, 4912), p-YAP (1:1,000; Cell signaling, 4911), AKT (1:1,000; Cell Signaling, 4691), p-AKT (1:1,000; Cell Signaling, 4060), ERK (1:1,000; Cell Signaling, 9102), p-ERK (1:1,000; Cell Signaling, 9101) and beta-actin (1:5,000, sc-47778, Santa Cruz) or Hsp90 (1:1000; sc-13119, Santa Cruz). Secondary anti-mouse/rabbit HRP-conjugated antibodies were subsequently applied.

[5] = tested on: human mesenchymal stromal cells; assay: ALP activity assay after 6 days of osteogenic culture; format: cell-based; settings: different doses
Method: Primary calvarial osteoblasts were isolated from five-day-old mice by triple collagenase/dispase II digestion. Cells were cultured in α-MEM medium (Gibco) containing 10% FBS, 2 mM L-glutamine, 1% penicillin/streptomycin, 1% Hepes, and 1% nonessential amino acids and differentiated with ascorbic acid and β-glycerophosphate. Conditioned medium was collected from culture of primary osteoblasts and stocked at −80° C. hMSCs were cultured and differentiated into osteoblasts using a commercial kit (Cyagen). All cells were routinely tested to be mycoplasma negative.
For staining of extracellular matrix mineralization, cells were fixed with 10% neutral buffered formalin and stained with alizarin red. Mineralization activity was measured by colorimetric analysis. For alkaline phosphatase (ALP) activity, osteoblasts were fixed with 10% neutral formalin buffer and stained with the solution containing Fast Blue and Naphthol (Sigma-Aldrich). Alternatively, osteoblasts were incubated with 10-fold diluted Alamar Blue solution, washed, and incubated with a solution containing 6.5 mM Na2CO3, 18.5 mM NaHCO3, 2 mM MgCl2, and phosphatase substrate (Sigma-Aldrich). ALP activity was measured by a spectrophotometer (Thermo).

[6] = treatment initiated eight weeks after OVX

B1: SLIT3: SLIT3 recombinant protein (R&D); secreted ligand of ROBO receptors (protein, UniProt O75094 34-1523, looked up)
Slit homolog 3 protein: CPTKCTCSAASVDCHGLGLRAVPRGIPRNAERLDLDRNNITRITKMDFAGLKNLRVLHLEDNQVSVIERGAFQDLKQLERLRLNKNKLQVLPELLFQSTPKLTRLDLSENQIQGIPRKAFRGITDVKNLQLDNNHISCIEDGAFRALRDLEILTLNNNNISRILVTSFNHMPKIRTLRLHSNHLYCDCHLAWLSDWLRQRRTVGQFTLCMAPVHLRGFNVADVQKKEYVCPAPHSEPPSCNANSISCPSPCTCSNNIVDCRGKGLMEIPANLPEGIVEIRLEQNSIKAIPAGAFTQYKKLKRIDISKNQISDIAPDAFQGLKSLTSLVLYGNKITEIVKGLFDGLVSLQLLLLNANKINCLRVNTFQDLQNLNLLSLYDNKLQTISKGLFAPLQSIQTLHLAQNPFVCDCHLKWLADYLQDNPIETSGARCSSPRRLANKRISQIKSKKFRCSGSEDYRSRFSSECFMDLVCPEKCRCEGTIVDCSNQKLVRIPSHLPEYVTDLRLNDNEVSVLEATGIFKKLPNLRKINLSNNKIKEVREGAFDGAASVQELMLTGNQLETVHGRVFRGLSGLKTLMLRSNLIGCVSNDTFAGLSSVRLLSLYDNRITTITPGAFTTLVSLSTINLLSNPFNCNCHLAWLGKWLRKRRIVSGNPRCQKPFFLKEIPIQDVAIQDFTCDGNEESSCQLSPRCPEQCTCMETVVRCSNKGLRALPRGMPKDVTELYLEGNHLTAVPRELSALRHLTLIDLSNNSISMLTNYTFSNMSHLSTLILSYNRLRCIPVHAFNGLRSLRVLTLHGNDISSVPEGSFNDLTSLSHLALGTNPLHCDCSLRWLSEWVKAGYKEPGIARCSSPEPMADRLLLTTPTHRFQCKGPVDINIVAKCNACLSSPCKNNGTCTQDPVELYRCACPYSYKGKDCTVPINTCIQNPCQHGGTCHLSDSHKDGFSCSCPLGFEGQRCEINPDDCEDNDCENNATCVDGINNYVCICPPNYTGELCDEVIDHCVPELNLCQHEAKCIPLDKGFSCECVPGYSGKLCETDNDDCVAHKCRHGAQCVDTINGYTCTCPQGFSGPFCEHPPPMVLLQTSPCDQYECQNGAQCIVVQQEPTCRCPPGFAGPRCEKLITVNFVGKDSYVELASAKVRPQANISLQVATDKDNGILLYKGDNDPLALELYQGHVRLVYDSLSSPPTTVYSVETVNDGQFHSVELVTLNQTLNLVVDKGTPKSLGKLQKQPAVGINSPLYLGGIPTSTGLSALRQGTDRPLGGFHGCIHEVRINNELQDFKALPPQSLGVSPGCKSCTVCKHGLCRSVEKDSVVCECRPGWTGPLCDQEARDPCLGHRCHHGKCVATGTSYMCKCAEGYGGDLCDNKNDSANACSAFKCHHGQCHISDQGEPYCLCQPGFSGEHCQQENPCLGQVVREVIRRQKGYASCATASKVPIMECRGGCGPQCCQPTRSKRRKYVFQCTDGSSFVEEVERHLECGCLACS
- acquisition of CD31hiEMCNhi surface immunophenotype in culture [1]: enhanced the acquisition; also recorded: induces production
- bone loss after onset of OVX-induced osteopenia ([2]; IV twice weekly initiated eight weeks after OVX): significantly reversed bone loss; also recorded: therapeutic effects
- cortical thickness [2, 6]: increased
- trabecular BV/TV [2, 6]: increased
- CD31hiEMCNhi endothelial cells ([2]; treatment initiated eight weeks after OVX, femur): significantly increased
- proliferation [3]: modestly increased the proliferation
- phosphorylation of YAP in response to ligand after Robo1 knockdown ([4]; EPOCs transduced with Robo1 shRNA): impaired their response
- signaling pathways downstream of SLIT3 (YAP, AKT, ERK phosphorylation) ([4]; mouse EPOCs after serum starvation): induces activation of Hippo and ERK MAPK pathway signaling
- osteoblast activation / differentiation (ALP activity) [5]: did not enhance osteoblast activation; also recorded: does not directly regulate osteoblast differentiation or activity
